The conditions of this data set: Methanothermobacter thermautotrophicus (strain ATCC 29096 / DSM 1053 / JCM 10044 / NBRC 100330 / Delta H); pH 7.5; Thermal; DSC; potassium phosphate buffer; reversible: no; whole UniProt chain shown.

B1: Geranylgeranylglyceryl phosphate synthase wild type, O26652 (protein)
chain: MKVEDYFHDILRERKIHLTLIDPEEQTPEEAVEIARAAIRGGTDGIMLGGSTTDSSELDNTARALRENIDVPIILFPGNTTGVSRYADAIFFMSLLNSTNPYWIIGAQALGAATVKKMGIEALPMGYLVVEPGGTVGWVGDTKPVPRNKPDIAAAYAMAAEFLGMRLFYLEAGSGAPEHVPEEMIALVKRCTDQILIVGGGIRSGEDAARVAGAGADVVVTGTVVENSDNVEDKIREIVEGMGSV
As for B1, the “unfolding enthalpy (calorimetric)” value stood at 389 kcal/mol.

Values taken from FireProtDB (doi:10.1021/acs.biochem.7b01284).
